Paper PMC10763354

Experiments:
[1] = target: leucine-rich repeat containing 19 (LRRC19) protein (UniProt Q9H756); assay: MST; Monolith NT.115; NT647-labelled LRRC19 and DVF in the presence of typhaneoside; MST buffer (50 mM Tris-HCl pH 7.4, 150 mM NaCl, 10 mM MgCl2)
[2] = target: leucine-rich repeat containing 19 (LRRC19) protein (UniProt Q9H756); assay: SPR; BIACORE 3000, 25 °C; LRRC19 immobilised on a CM5 chip (EDC/NHS); DVF in Tris buffered saline injected at 30 μL/min, at least 5 concentrations, 180 s binding, 300 s dissociation

Sequence of leucine-rich repeat containing 19 (LRRC19) protein (Q9H756 25-270): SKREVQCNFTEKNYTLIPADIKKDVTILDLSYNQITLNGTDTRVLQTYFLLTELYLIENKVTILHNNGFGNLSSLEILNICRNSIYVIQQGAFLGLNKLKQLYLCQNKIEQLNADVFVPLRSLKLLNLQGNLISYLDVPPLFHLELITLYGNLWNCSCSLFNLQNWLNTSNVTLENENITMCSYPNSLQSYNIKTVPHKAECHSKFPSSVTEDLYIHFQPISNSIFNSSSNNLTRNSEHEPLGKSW

## Desulfovibrio vulgaris flagellin (natural protein)
[1]
  fold reduction of the binding affinity by typhaneoside (against DVF-LRRC19 without it): 400 fold
[2]
  Kd: 35 µM
